# The supplement of paper PMC10567573
# B1: IKZF1 (parent)
# chain: YHSQDRYEFSSHITRGEHRFHMS
# Variants of: B1
# Assay: protein stability index of a GFP-peptide fusion (GPS, HEK-293T) (PSI 1-6); higher = more stable
# Settings: c terminus: native
# 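Also: lentivirally expressed fusions sorted by FACS into six bins by GFP to DsRed ratio, PSI derived from sequencing read proportions per bin multiplied by bin number.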
row,Variant,protein stability index
1,S11G,2
2,S11H,1.61
3,S11I,1.65
4,S11K,1.95
5,S11L,3.83
6,S11M,1.48
7,S11N,1.92
8,S11P,3.03
9,S11Q,2.07
10,S11R,2.33
11,S11T,2.02
12,S11V,1.6
13,S11W,2.27
14,S11Y,1.67
15,H12A,1.71
16,H12C,2.66
17,H12D,1.88
18,H12E,2.47
19,H12F,2.04
20,H12G,3.61
21,H12I,1.92
22,H12K,2.31
23,H12L,2.06
24,H12M,2.74

row,Variant,protein stability index
1,H12N,2.67
2,H12P,2.27
3,H12Q,2.83
4,H12R,2.79
5,H12S,3.03
6,H12T,2.15
7,H12V,2.49
8,H12W,2.85
9,H12Y,1.98
10,I13A,1.85
11,I13C,2.08
12,I13D,1.52
13,I13E,1.83
14,I13F,1.81
15,I13G,2.7
16,I13H,2.36
17,I13K,1.82
18,I13L,2.52
19,I13M,2.04
20,I13N,2.05
21,I13P,1.78
22,I13Q,1.62
23,I13R,1.49
24,I13S,2.03

row,Variant,protein stability index
1,I13T,1.97
2,I13V,1.78
3,I13W,1.71
4,I13Y,1.49
5,T14A,2.38
6,T14C,1.58
7,T14D,1.83
8,T14E,1.68
9,T14F,1.47
10,T14G,1.54
11,T14H,1.99
12,T14I,2.15
13,T14K,1.49
14,T14L,2.23
15,T14M,1.84
16,T14N,2.24
17,T14P,1.52
18,T14Q,1.34
19,T14R,2.07
20,T14S,1.85
21,T14V,2.04
22,T14W,2.7
23,T14Y,1.37
24,R15A,2.46

row,Variant,protein stability index
1,R15C,2.69
2,R15D,2
3,R15E,1.81
4,R15F,2.34
5,R15G,1.87
6,R15H,1.73
7,R15I,3.49
8,R15K,1.8
9,R15L,2.12
10,R15M,1.47
11,R15N,1.99
12,R15P,1.42
13,R15Q,2.22
14,R15S,1.55
15,R15T,2.9
16,R15V,1.82
17,R15W,1.82
18,R15Y,2.29
19,G16A,1.76
20,G16C,2.74
21,G16D,2.52
22,G16E,3.6
23,G16F,1.9
24,G16H,1.56

row,Variant,protein stability index
1,G16I,1.77
2,G16K,2.27
3,G16L,1.53
4,G16M,2.85
5,G16N,2.04
6,G16P,2.01
7,G16Q,1.58
8,G16R,2.38
9,G16S,1.5
10,G16T,2.4
11,G16V,1.35
12,G16W,1.51
13,G16Y,4.64
14,E17A,2.75
15,E17C,3.05
16,E17D,1.63
17,E17F,1.62
18,E17G,1.56
19,E17H,1.99
20,E17I,2.84
21,E17K,2.41
22,E17L,2.11
23,E17M,1.71
24,E17N,2.92

row,Variant,protein stability index
1,E17P,2.04
2,E17Q,2.48
3,E17R,1.94
4,E17S,1.64
5,E17T,1.4
6,E17V,1.68
7,E17W,2.07
8,E17Y,1.7
9,H18A,1.45
10,H18C,2.04
11,H18D,1.12
12,H18E,1.97
13,H18F,2.66
14,H18G,1.6
15,H18I,1.65
16,H18K,2.22
17,H18L,1.99
18,H18M,2.75
19,H18N,1.45
20,H18P,1.81
21,H18Q,1.72
22,H18R,1.82
23,H18S,1.83
24,H18T,1.92

row,Variant,protein stability index
1,H18V,1.68
2,H18W,2.34
3,H18Y,1.83
4,R19A,2.47
5,R19C,3.13
6,R19D,1.93
7,R19E,3.06
8,R19F,2.39
9,R19G,1.89
10,R19H,1.3
11,R19I,2.17
12,R19K,1.95
13,R19L,2.54
14,R19M,1.92
15,R19N,2.27
16,R19P,1.77
17,R19Q,2.28
18,R19S,1.99
19,R19T,1.92
20,R19V,2.16
21,R19W,2.84
22,R19Y,2.16
23,F20A,2.15
